Measured values taken from patent US7807788 (GlaxoSmithKline, dated 2010).
Values joined by “and” are separate entries in the source; they are usually repeats but may differ in a detail not shown here. Identical values can stand only once.

Legend:
[1] = target: T1, recombinant E.coli-expressed cynomolgus IL-13 (cynomolgus, UniProt Q5I6E4 21-132 (Macaca thibetana entry)); test: cell-based or functional assay
T1 chain: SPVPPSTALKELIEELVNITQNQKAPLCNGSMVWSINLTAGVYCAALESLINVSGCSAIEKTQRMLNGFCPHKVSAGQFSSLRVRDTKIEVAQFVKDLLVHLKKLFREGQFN

[2] = target: T2, alanine-scan peptide 1 (parental sequence, no substitution) (human, N-terminal biotin); test: peptide ELISA: immobilised biotinylated peptide, titrated parental 6A1 (mAb named in legend paragraph 137, not on the sheet)
T2 construct: also called parental peptide
T2 peptide: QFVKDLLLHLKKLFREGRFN

alanine-scan peptide 63 = target: T3, alanine-scan peptide 63 (human, N-terminal biotin); test: as above
T3 construct: also called K103A peptide
T3 peptide: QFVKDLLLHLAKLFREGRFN

alanine-scan peptide 65 = target: T4, alanine-scan peptide 65 (human, N-terminal biotin); test: as above
T4 construct: also called L105A peptide
T4 peptide: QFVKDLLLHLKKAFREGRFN

alanine-scan peptide 66 = target: T5, alanine-scan peptide 66 (human, N-terminal biotin); test: as above
T5 construct: also called F106A peptide
T5 peptide: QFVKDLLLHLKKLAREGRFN

[3] = target: T6, recombinant E.coli-expressed human IL-13 (human, UniProt P35225 35-146); test: sandwich ELISA: E.coli-expressed human IL-13 captured by goat anti-human IL-13 polyclonal, titrated 6A1, anti-mouse IgG-HRP
T6 construct: Untagged E.coli material, bought (Cambridge Bioscience) or made in-house (CA); also called hIL-13; human IL13 (CA)

[4] = target: T6, recombinant E.coli-expressed human IL-13; test: cell-based or functional assay
[5] = target: T7, recombinant E.coli-expressed human IL-4 (human, UniProt P05112 25-153); test: sandwich ELISA: human IL-4 captured by goat anti-human IL-4 polyclonal, titrated antibody (positive control)
T7 sequence (looked up): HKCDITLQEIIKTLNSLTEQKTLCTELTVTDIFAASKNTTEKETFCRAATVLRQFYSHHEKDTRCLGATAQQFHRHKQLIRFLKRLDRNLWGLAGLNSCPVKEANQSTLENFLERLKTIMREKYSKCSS

B1: mouse monoclonal antibody 6A1 (antibody, mouse IgG1, V domains shown)
VH: EIQLQQSVAELVRPGASVRLSCTASGFYIKDTYMHWVIQRPEQGLEWIGTIDPANGNTKYVPKFQGKATITADTSSNTAYLRLSSLTSEDTAIYYCARSIYDDYHYDDYYAMDYWGQGTSVTVSS
VL: DVLMTQTPLSLPVSLGDQASISCRSSQNIVHINGNTYLEWYLQKPGQSPKLLIYKISDRFSGVPDRFSGSGSGTDFTLKISRVEAEDLGVYYCFQGSHVPWTFGGGTKLEIK
notes: Murine IgG1/kappa from hybridoma; also called mAb 6A1; 6A1 parental mAb
[1]
  Mean ND50 for 2 assays, TF-1 bioassay: 0.078 µg/mL
[2]
  EC50 (read off the curve): ~0.02 µg/mL and ~0.03 µg/mL
alanine-scan peptide 63
  EC50 (read off the curve): ~0.02 µg/mL
alanine-scan peptide 65
  EC50 (read off the curve): ~0.03 µg/mL
alanine-scan peptide 66
  EC50 (read off the curve): ~0.03 µg/mL
[3]
  EC50 (read off the curve): ~0.03 µg/mL

B2: chimaeric 6A1 monoclonal antibody (antibody, human IgG1, V domains shown)
VH: B1 VH
VL: B1 VL
[4]
  Mean ND50 for 2 assays, TF-1 bioassay: 0.119 µg/mL

B3: anti-human IL4 mAb (antibody, V domains shown)
VH: QVQLQQSGPELVKPGASVKISCKASGYSFTSYWIHWIKQRPGQGLEWIGMIDPSDGETRLNQRFQGRATLTVDESTSTAYMQLRSPTSEDSAVYYCTRLKEYGNYDSFYFDVWGAGTLVTVSS
VL: DIQMTQSPASLSVSVGDTITLTCHASQNIDVWLSWFQQKPGNIPKLLIYKASNLHTGVPSRFSGSGSGTGFTLTISSLQPEDIATYYCQQAHSYPFTFGGGTKLEIKR
[5]
  EC50 (read off the curve): ~0.03 µg/mL
